Measurements as given in publication PMC12774657, “Multimodal bHLH-PAS DNA binding controls specificity and drives obesity”.

Target: SIM1 bHLH-PASA-PASB;ARNT2 bHLH-PASA-PASB (;, UniProt P81133;Q9HBZ2 1-348;1-455, |)
Assay: EMSA; preferred over HIF2a probe; EMSA: 10 nM probe, 20 mM Tris pH 8.0, 250 mM NaCl, 16 ug/ml salmon sperm ssDNA, 30 ug/ml BSA, 1.25 mM MgCl2, 6% glycerol, 10 mM DTT, room temperature 30 min, 5-7% native PAGE
Settings: protein: recombinant;recombinant; tags: 6xHis-TEV, tag removed;untagged; copies: 1;1; label: FAM (upper strand); blunt

SIM1 bHLH-PASA-PASB;ARNT2 bHLH-PASA-PASB, sequence (P81133 1-348, chain 1 of 2): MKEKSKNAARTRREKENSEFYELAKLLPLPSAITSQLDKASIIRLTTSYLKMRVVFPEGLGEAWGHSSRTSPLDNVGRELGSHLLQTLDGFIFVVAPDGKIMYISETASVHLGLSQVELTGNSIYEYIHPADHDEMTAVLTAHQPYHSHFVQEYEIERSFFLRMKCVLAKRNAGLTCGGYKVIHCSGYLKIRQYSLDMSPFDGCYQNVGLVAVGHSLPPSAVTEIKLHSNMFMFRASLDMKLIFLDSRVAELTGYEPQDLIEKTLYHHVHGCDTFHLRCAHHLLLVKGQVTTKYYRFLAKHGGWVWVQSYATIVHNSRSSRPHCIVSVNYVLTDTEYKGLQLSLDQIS
SIM1 bHLH-PASA-PASB;ARNT2 bHLH-PASA-PASB, sequence (Q9HBZ2 1-455, chain 2 of 2): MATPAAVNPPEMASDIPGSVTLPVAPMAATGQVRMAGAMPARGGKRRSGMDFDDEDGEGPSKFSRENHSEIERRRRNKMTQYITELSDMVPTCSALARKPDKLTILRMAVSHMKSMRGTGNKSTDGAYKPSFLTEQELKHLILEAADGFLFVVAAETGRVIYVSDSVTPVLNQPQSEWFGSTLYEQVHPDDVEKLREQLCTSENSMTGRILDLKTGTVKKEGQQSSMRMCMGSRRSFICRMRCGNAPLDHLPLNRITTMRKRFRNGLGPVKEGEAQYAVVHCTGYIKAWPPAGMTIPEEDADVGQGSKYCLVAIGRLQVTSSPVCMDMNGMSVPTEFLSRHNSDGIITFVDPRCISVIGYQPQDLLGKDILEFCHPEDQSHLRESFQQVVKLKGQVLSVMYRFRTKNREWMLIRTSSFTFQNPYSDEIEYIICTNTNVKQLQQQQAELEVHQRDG

B1: SRE 22mer (top SIM1/ARNT2 probe) (dsDNA)
DNA 1: AAAAGGTACGTGACCAAAAAGA
DNA 2: TCTTTTTGGTCACGTACCTTTT
binding result: binds
